Assay [1] deals with mouse NKG2A on cells (mouse). Briefly: binding to mNKG2A-expressing CHO cells.
Assay [2] has as its target mouse NKG2A on cells (mouse). Briefly: blockade of Qa-1b tetramer binding to mNKG2A-expressing CHO cells.
Assay [3] concerns the target cynomolgus monkey NKG2C on CHO cells (cynomolgus monkey). As to the kind of experiment: cell binding on CHO-cyno NKG2C cells.
The target of assay [4] is human NKG2A-CD94 heterodimer (extracellular domains) (human) (UniProt Q13241). As to the kind of experiment: SPR Biacore T200, 37 °C, antibody captured by anti-human Fc on C1 chip, hNKG2A-hCD94 as analyte. For orientation: In SPR one partner is held on a chip, and binding of the other changes the refractive index at the surface.

As usually defined, the EC50 is the concentration at which the effect is half-maximal. Broadly, the IC50 is the concentration that gives 50% inhibition. One may read the Kd as a measure of binding affinity in units of concentration. As a reminder, the koff is a measure of how fast the partners let go of each other. Broadly, the kon is a measure of how fast the partners come together.

Chain of human NKG2A-CD94 heterodimer (extracellular domains) (human) (chain, as listed by the source, chain 1 of 2): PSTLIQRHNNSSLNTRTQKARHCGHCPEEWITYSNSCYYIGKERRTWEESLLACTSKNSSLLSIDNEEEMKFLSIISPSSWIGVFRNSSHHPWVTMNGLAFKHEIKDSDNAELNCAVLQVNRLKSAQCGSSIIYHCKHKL
Chain of human NKG2A-CD94 heterodimer (extracellular domains) (human) (Q13241 32-179, chain 2 of 2): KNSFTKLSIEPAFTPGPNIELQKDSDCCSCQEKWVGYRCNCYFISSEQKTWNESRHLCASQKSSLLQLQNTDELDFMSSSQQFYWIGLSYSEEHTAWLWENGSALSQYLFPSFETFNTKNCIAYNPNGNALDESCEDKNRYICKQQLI

B1: NKG2A.3 antibody (anti-mNKG2A surrogate, mIgG1-D265A) (antibody, V domains shown)
VH: QVQLKQSGAELVKPGASVKISCKTSGYTFTDGYMHWVEQNPGQGLEWIGRIDPDSGYTMYNQKFQDKATLTRDKSSSTVYMELRSLTSEDSAVYYCAINYGEYWYFDFWGQGTQVTVSS
VL: DIVMTQSPSSLAVSAGDKVTINCKSSQTLFSGRYNYLAWYQQKTGQAPKLLIYYTSTRHTGVPGRFIGSGSGTDFTLTINNLQTEDLGNYYCQQHYSTPYTFGAGTNLEIRR
Molecule B1 showed a concentration giving a half-maximal response (EC50) in assay [1] of 0.3 nM. In assay [2], this molecule gave an IC50 of 0.4 nM.

B2: NKG2A.9 antibody (antibody, human IgG1, kappa, V domains shown)
VH: EVQLVESGGGLVKPGGSLRLSCAASGFTFSSHSMNWVRQAPGKGLEWVSAISSSSSYIYYADSVKGRFTISRDNAKNSLYLQMNSLRAEDTAVYYCAREEWGLPFDYWGQGTLVTVSS
VL: AIQLTQSPSSLSASVGDRVTITCRASQGISSALAWYQQKPGKAPKLLIYDASSLKSGVPSRFSGSGSGTDFTLTISSLQPEDFATYYCQQFNSYPLTFGQGTRLEIKR
In turn, B2 returned an EC50 in assay [3] of 0.8 nM.

B3: Z270 (antibody, from another filing, V domains shown)
VH: QVQLQQPGAELVRPGASVKLSCKASGYTFTSYWMNWVKQRPEQGLQWIGRIDPYDSETHYSQKFKDKAILTVDKSSSTAYMRLSSLTSEDSAVYYCARGGYDFDVGTLYWFFDVWGAGTTVTVS
VL: DIQMTQSPASLSASVGETVTITCRASENIYSYLAWYQQKQGKSPQFLVYNAKTLAEGVPSRFSGSGSGTQFSLKINSLQPEDFGSYYCQHHYGTPRTFGGGTKLEIK
B3: in assay [4], the Half-life of Antibody/Analyte Complex is 3 to 4 s, the Kd stood at 25 nM, the koff stood at 0.2 s⁻¹ and the kon turned out to be 8e+06 M⁻¹ s⁻¹.

For the origin of these results see patent US20250101100A1.
